Measurements published in PMC4140853 (PLoS Pathogens, 2014).

Assays:
[1] = molecular target: HLA-DQ2 (A1*0501/B1*0201) with the CLIP1 peptide covalently linked to the beta chain, soluble, Fos-Jun leucine zipper; assay: BLI; Octet RED96; site-specifically biotinylated HLA-DQ2 (CLIP1) immobilised on streptavidin (SA) tips; analyte gp42 or preformed gHgL/gp42 complex; equilibrium (steady state) analysis of the same data
[2] = molecular target: HLA-DQ2 (A1*0501/B1*0201) with the CLIP1 peptide covalently linked to the beta chain, soluble, Fos-Jun leucine zipper; assay: BLI
[3] = molecular target: T1, EBV gHgL (soluble gH residues 18-679 / gL residues 24-137 heterodimer) (Epstein-Barr virus, UniProt P03231;P03212); assay: cell-based or functional assay
[4] = molecular target: T1, EBV gHgL (soluble gH residues 18-679 / …); assay: BLI; Octet RED96; biotinylated gHgL immobilised on streptavidin (SA) tips, soluble gp42 as analyte; equilibrium analysis of the same data; details: both partners purified
[5] = molecular target: T1, EBV gHgL (soluble gH residues 18-679 / …); assay: BLI; details: both partners purified
[6] = molecular target: T1, EBV gHgL (soluble gH residues 18-679 / …); assay: SEC; Superdex 200 gel filtration of purified proteins and their mixtures; 20 mM Tris, 150 mM NaCl, pH 7.4; peak components verified by SDS-PAGE (data not shown); details: both partners purified
[7] = molecular target: T1, EBV gHgL (soluble gH residues 18-679 / …); assay: BLI; details: both partners purified; remark: listed apart in the source

For “EBV gp42 C114S single mutant, soluble (residues 33-223) (from UniProt P03205 33-223) (natural protein)”, the Kd [1] was 97 nM, the KD1 (2:1 heterogeneous ligand fit, primary component) [2] was 88.8 nM and the KD2 (2:1 heterogeneous ligand fit, secondary component) [2] was 3.45 nM.

In the case of “EBV gp42 C114S/I159C double mutant (referred to as I159C), soluble (residues 33-223) (from UniProt P03205 33-223) (natural protein)”, the Kd [1] is reported as 29 nM, the KD1 (2:1 heterogeneous ligand fit, primary component) [2] is reported as 59 nM and the KD2 (2:1 heterogeneous ligand fit, secondary component) [2] is reported as 1.25 nM.

B1: EBV gp42 I159C (C114S/I159C), reduced with TCEP and alkylated with iodoacetamide (IAA) (natural protein)
chain: GGGRVAAAAITWVPKPNVEVWPVDPPPPVNFNKTAEQEYGDKEVKLPHWTPTLHTFQVPQNYTKANCTYCNTREYTFSYKGSCFYFTKKKHTWNGCFQACAELYPCTYFYGPTPDILPVVTRNLNACESLWVGVYRVGEGNWTSLDGGTFKVYQIFGSHCTYVSKFSTVPVSHHECSFLKPCLCVSQRSNS
modifications: introduced cysteine 159 reduced with TCEP and alkylated with iodoacetamide (IAA)
With B1 the “virus-free cell-cell fusion (luciferase) of CHO cells expressing gB and gHgL with Daudi B cells, triggered by 0.1 or 1.0 µg soluble gp42 protein; activity relative to wt gp42” value [3] was < 10 % of wild type.

B2: EBV gp42 C114S single mutant, soluble (residues 33-223) (natural protein)
chain: GGGRVAAAAITWVPKPNVEVWPVDPPPPVNFNKTAEQEYGDKEVKLPHWTPTLHTFQVPQNYTKANCTYCNTREYTFSYKGSCFYFTKKKHTWNGCFQACAELYPCTYFYGPTPDILPVVTRNLNAIESLWVGVYRVGEGNWTSLDGGTFKVYQIFGSHCTYVSKFSTVPVSHHECSFLKPCLCVSQRSNS
notes: source: High Five insect cells (baculovirus), secreted, purified (Talon or Ni-NTA, Superdex 200)
B2 gave a Kd [4] of 6.3 nM, a Kd [5] of 1.29 nM and a koff [5] of 0.000529 s⁻¹. The kon [5] was 409000 M⁻¹ s⁻¹.

B3: EBV gp42 C114S/I159C double mutant (referred to as I159C), soluble (residues 33-223) (natural protein)
chain: GGGRVAAAAITWVPKPNVEVWPVDPPPPVNFNKTAEQEYGDKEVKLPHWTPTLHTFQVPQNYTKANCTYCNTREYTFSYKGSCFYFTKKKHTWNGCFQACAELYPCTYFYGPTPDILPVVTRNLNACESLWVGVYRVGEGNWTSLDGGTFKVYQIFGSHCTYVSKFSTVPVSHHECSFLKPCLCVSQRSNS
notes: as for B2
B3 gave a Kd [4] of 13 nM, a Kd [5] of 0.77 nM and a koff [5] of 0.000295 s⁻¹. It also gave a kon [5] of 381000 M⁻¹ s⁻¹.

B4: EBV gp42 wild type, soluble (residues 33-223) (natural protein)
chain: GGGRVAAAAITWVPKPNVEVWPVDPPPPVNFNKTAEQEYGDKEVKLPHWTPTLHTFQVPQNYTKANCTYCNTREYTFSYKGCCFYFTKKKHTWNGCFQACAELYPCTYFYGPTPDILPVVTRNLNAIESLWVGVYRVGEGNWTSLDGGTFKVYQIFGSHCTYVSKFSTVPVSHHECSFLKPCLCVSQRSNS
notes: also called gp42 w.t; wt gp42; source: High Five insect cells (baculovirus), secreted, purified (Talon or Ni-NTA, Superdex 200)
In the case of B4, the “stoichiometry N” value [6] is reported as 1 gp42 per gHgL, the t1/2 for dissociation [7] is reported as roughly 30 min and the Kd [4] is reported as 4.1 nM. For the same molecule, the Kd [5] was 1.41 nM.
